This is an account of results in PMC4684421 (Protein expression and purification, 2015).

What all share (assay): enzyme inhibition kinetics
Assay [1] addresses Cathepsin B (human).
For assay [2], the target named is Cathepsin B (human). This is another data set of the same source.
The target of assay [3] is T1, Papain (UniProt P00784 134-345).
T1 sequence (looked up): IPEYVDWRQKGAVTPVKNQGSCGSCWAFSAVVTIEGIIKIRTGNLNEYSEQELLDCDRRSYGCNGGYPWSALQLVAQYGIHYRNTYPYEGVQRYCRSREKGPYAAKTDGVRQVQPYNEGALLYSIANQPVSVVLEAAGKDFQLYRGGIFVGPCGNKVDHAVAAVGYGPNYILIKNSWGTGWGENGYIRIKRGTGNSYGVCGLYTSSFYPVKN

Assay [4] concerns the target T1, Papain. The source holds these as a separate data set.

Like-named read-outs stand apart in the source and are kept apart here.

“Human cystatin C (from UniProt P01034 27-146) (natural protein)”: the Ki turned out to be 60 pM with Cathepsin B (human) [1] and 100 pM with Cathepsin B (human) [2].

B1: Human cystatin C (natural protein, UniProt P01034 27-146, looked up)
chain: SSPGKPPRLVGGPMDASVEEEGVRRALDFAVGEYNKASNDMYHSRALQVVRARKQIVAGVNYFLDVELGRTTCTKTQPNLDNCPFHDQPHLKRKAFCSFQIYAVPWQGTMTLSKSTCQDA
For B1, the Ki is under 5 pM with Papain [3] and under 7 pM with Papain [4].
